Source: the Human Domainome abundance scans (Beltran et al. 2025)
± gives the uncertainty stated by the source.

B1: Peripheral plasma membrane protein CASK, residues 488 to 569; numbered along this chain, O14936 (parent)
chain: VRLVQFQKNTDEPMGITLKMNELNHCIVARIMHGGMIHRQGTLHVGDEIREINGISVANQTVEQLQKMLREMRGSITFKIVP

Variants of: B1
Experiment: abundance fitness (aPCA) (normalised: wild type 0, dead -1); higher = more abundant; growth selection in yeast, the domain comes from the species named
Conditions: Homo sapiens

Row | Variant | abundance fitness
1 | G74F | -0.51 ± 0.078
2 | M32V | 0.027 ± 0.034
3 | M32I | 0.175 ± 0.085
4 | M32D | 0.051 ± 0.055
5 | M32Q | 0.001 ± 0.045
6 | F6E | -0.629 ± 0.038
7 | F6D | -0.712 ± 0.054
8 | F6R | -0.673 ± 0.029
9 | F6I | -0.028 ± 0.04
10 | H33K | 0.01 ± 0.04
11 | H33G | -0.054 ± 0.025
12 | H33P | 0.009 ± 0.033
13 | H33V | 0.003 ± 0.028
14 | V81S | -0.044 ± 0.032
15 | V81I | -0.016 ± 0.039
16 | V81P | -0.658 ± 0.08
17 | V81Y | -0.035 ± 0.038
18 | V81M | -0.05 ± 0.038
19 | V81N | -0.118 ± 0.046
20 | V81Q | -0.001 ± 0.048
21 | V81T | -0.075 ± 0.034

Row | Variant | abundance fitness
22 | Q66E | 0.018 ± 0.029
23 | Q66R | -0.104 ± 0.02
24 | Q66I | -0.094 ± 0.04
25 | Q66V | -0.141 ± 0.024
26 | Q66H | -0.043 ± 0.039
27 | Q66G | -0.038 ± 0.021
28 | Q66C | -0.055 ± 0.032
29 | Q66T | -0.012 ± 0.027
30 | Q66N | -0.016 ± 0.047
31 | Q7S | -0.042 ± 0.025
32 | Q7T | 0.041 ± 0.03
33 | Q7F | -0.021 ± 0.041
34 | Q7V | 0.001 ± 0.022
35 | Q7L | -0.027 ± 0.025
36 | Q7K | -0.017 ± 0.029
37 | G34M | -0.259 ± 0.057
38 | G34Y | -0.489 ± 0.14
39 | G34V | -0.447 ± 0.042
40 | G34T | -0.126 ± 0.054
41 | G34D | -0.032 ± 0.051
42 | L65R | -0.449 ± 0.026

Row | Variant | abundance fitness
43 | L65F | -0.23 ± 0.063
44 | L65T | 0.006 ± 0.031
45 | L65H | -0.402 ± 0.067
46 | L65C | -0.048 ± 0.036
47 | L65N | -0.318 ± 0.069
48 | H44I | -0.188 ± 0.049
49 | H44E | 0.02 ± 0.035
50 | H44W | -0.281 ± 0.03
51 | H44K | 0.007 ± 0.032
52 | H44P | -0.917 ± 0.063
53 | H44T | -0.039 ± 0.029
54 | R30I | -0.372 ± 0.087
55 | R30A | 0.008 ± 0.034
56 | R30P | -1.11 ± 0.23
57 | R50E | -0.068 ± 0.037
58 | R50I | 0.034 ± 0.089
59 | R50N | -0.054 ± 0.092
60 | I27Q | -0.106 ± 0.03
61 | I27E | -0.05 ± 0.03
62 | I27Y | 0.007 ± 0.037
63 | I27C | -0.16 ± 0.029

Row | Variant | abundance fitness
64 | H25N | 0.027 ± 0.036
65 | H25Y | -0.102 ± 0.047
66 | H25W | -0.32 ± 0.031
67 | I76W | -0.236 ± 0.032
68 | I37L | -0.103 ± 0.025
69 | I37T | -0.129 ± 0.029
70 | I37S | -0.217 ± 0.028
71 | I37N | -0.391 ± 0.059
72 | H38W | -0.029 ± 0.026
73 | H38L | -0.348 ± 0.03
74 | H38N | -0.138 ± 0.055
75 | H38K | -0.138 ± 0.037
76 | H38S | -0.052 ± 0.028
77 | H38P | -0.103 ± 0.034
78 | H38I | -0.295 ± 0.066
79 | H38E | 0.048 ± 0.027
80 | L23F | -0.04 ± 0.049
81 | L23K | 0.005 ± 0.035
82 | L23T | 0.044 ± 0.037
83 | L23H | 0.028 ± 0.049
84 | L23V | 0.012 ± 0.025
